Laboratory results from US9284543B2, “Neutral active soluble truncated PH20 polypeptides and uses thereof” (Halozyme, Inc., priority 2008, dated 2016).
Blank lines part the entries; values can stand above or below the molecule they belong to.

Assays:
Type in all cases: biochemical
[1] = bHA enzymatic assay of PH20 transiently expressed in lectin resistant CHO mutants; conditions: pH5.5; for PH20 Activity (1:27): 1:27 dilution; for PH20 Activity (1:81): 1:81 dilution
Procedure: (§1) In short, a 4×BH 96-well plate was coated with biotinylated-HA (1.1 MDa). The 72 hour post transfection supernatant from cells transfected with human PH20 hyaluronidase carboxy-terminus deletion mutants was diluted in buffer at either pH 7.4 or pH 5.5 and added to individual wells of the plate and allowed to incubate at 37° C. for 90 minutes. The reaction was terminated by addition of 4M guanidine HCl. The wells were washed 4× with Phosphate Buffered Saline with Tween20 (PBST) to remove any digested biotinylated-HA followed by addition of streptavidin-HRP for 1 hour at room temperature. The wells were washed 4× with PBST and the plate was developed with TMB. The plate was read at 450 nm using an ELISA plate reader. Hyaluronidase activity (in Units/mL) was determined by interpolating the measured absorbance at 450 nm with a hyaluronidase reference standard curve. Full length mature human PH20 hyaluronidase and untransfected CHO cells were used as positive and negative controls.
The resulting cell culture media was analyzed by Western blot analysis and hyaluronidase activity was measured using the biotinylated HA enzymatic assay (as described in Examples 3 and 5 above).

[2] = Hyaluronidase activity of N-glycan site specific deglycosylation mutants (biotinylated-HA assay); conditions: media of transfected CHO-S cells
Procedure: as §1
PH20sHis (SEQ ID NO:210) was used as a template for mutagenesis of each asparagine residue to alanine using QuikChange® Site-Directed Mutagenesis Kit (Cat No. 200518, Stratagene). […] Six single mutants were generated, one for each of the N-glycosylation sites. Additionally, three double mutants and a triple mutant were generated for asparagines N82, N166 and N254, all of which are occupied by complex type glycans. Finally, a double mutant N368A/N393A was generated, lacking high mannose glycans. The mutants were transfected into CHO—S cells and expression was performed as described in Example 2A. Secretion into the media and hyaluronidase activity were determined as described in Examples 3 and 5, above.

[3] = Effect of glycosidase treatment on rHuPH20 hyaluronidase activity; design: unit not given here
Procedure: as §1
Human PH20 hyaluronidase is glycosylated at six different asparagine residues, including N82, N166, N235, N254, N368, and N393. Five glycosidases were used to generate deglycosylated human PH20 hyaluronidase, including: PNGaseF (New England Biolabs, Cat. No. P0704S, Lot #34), which cleaves all N-glycans; EndoF1, which cleaves high mannose and hybrid type glycans; EndoF2, which cleaves biantennary complex type glycans; EndoF3, which cleaves biantennary and more branched complex glycans; and EndoH (New England Biolabs, Cat. No. P0702S), which cleaves high mannose and hybrid type glycans. Therefore, treatment with PNGaseF results in complete deglycosylation whereas treatment with endoglycosidases results in only partial deglycosylation.
For complete deglycosylation, purified rHuPH20 (0.1 mg/mL final concentration) was incubated with PNGaseF (50,000 units/mL) in 50 mM phosphate buffer pH 7.2 overnight at 37° C. For partial deglycosylation, purified rHuPH20 (0.5 mg/mL final concentration) was incubated with 0.3 units/mL of endoglycosidase (either EndoF1, EndoF2, EndoF3 or EndoH) or a mixture all four endoglycosidases in 50 mM sodium acetate buffer pH 5.0 overnight at 35° C. Deglycosylation of rHuPH20 was analyzed by the shift in the mobility of PH20 by SDS-PAGE. Hyaluronidase enzymatic activity was determined as described in Example 5.

Activity pH 5.5 ([2]; pH 5.5): YES
Activity pH 7.4 ([2]; pH 7.4): YES
B1: HZ24-PH20sHis: his-tagged PH20 (SEQ ID NO:187), human PH20 clone with HexaHis tag after amino acid S490 (protein)
chain: MGVLKFKHIFFRSFVKSSGVSQIVFTFLLIPCCLTLNFRAPPVIPNVPFLWAWNAPSEFCLGKFDEPLDMSLFSFIGSPRINATGQGVTIFYVDRLGYYPYIDSITGVTVNGGIPQKISLQDHLDKAKKDITFYMPVDNLGMAVIDWEEWRPTWARNWKPKDVYKNRSIELVQQQNVQLSLTEATEKAKQEFEKAGKDFLVETIKLGKLLRPNHLWGYYLFPDCYNHHYKKPGYNGSCFNVEIKRNDDLSWLWNESTALYPSIYLNTQQSPVAATLYVRNRVREAIRVSKIPDAKSPLPVFAYTRIVFTDQVLKFLSQDELVYTFGETVALGASGIVIWGTLSIMRSMKSCLLLDNYMETILNPYIINVTLAAKMCSQVLCQEQGVCIRKNWNSSDYLHLNPDNFAIQLEKGGKFTVRGKPTLEDLEQFSEKFYCSCYSTLSCKEKADVKDTDAVDVCIADGVCIDAFLKPPMETEEPQIFYNASPSTLSHHHHHH
modifications: His6 tag; PH20sHis
PH20 Activity (1:27) ([1]; expressed in Lec1 cells): 0.54 U/mL
PH20 Activity (1:81) ([1]; expressed in Lec1 cells): 0.7695 U/mL
PH20 Activity (1:27) ([1]; expressed in Lec2 cells): 0.675 U/mL
PH20 Activity (1:81) ([1]; expressed in Lec2 cells): 1.053 U/mL
PH20 Activity (1:27) ([1]; expressed in Lec8 cells): 0.2565 U/mL
PH20 Activity (1:81) ([1]; expressed in Lec8 cells): 0.567 U/mL
PH20 Activity (1:27) ([1]; expressed in Pro-5 cells): 0.297 U/mL
PH20 Activity (1:81) ([1]; expressed in Pro-5 cells): 0.6075 U/mL

rHuPH20 activity after glycosidase treatment (assay readout) ([3]; rHuPH20 0.0080 U/ml): 1.9172
rHuPH20 activity after glycosidase treatment (assay readout) ([3]; rHuPH20 0.0400 U/ml): 1.9926
rHuPH20 activity after glycosidase treatment (assay readout) ([3]; rHuPH20 0.2000 U/ml): 1.9173
rHuPH20 activity after glycosidase treatment (assay readout) ([3]; rHuPH20 1.0000 U/ml): 1.9315
B2: PNGaseF: purified rHuPH20 incubated with PNGaseF (complete deglycosylation) (protein, listed as Homo sapiens)
chain: LNFRAPPVIPNVPFLWAWNAPSEFCLGKFDEPLDMSLFSFIGSPRINATGQGVTIFYVDRLGYYPYIDSITGVTVNGGIPQKISLQDHLDKAKKDITFYMPVDNLGMAVIDWEEWRPTWARNWKPKDVYKNRSIELVQQQNVQLSLTEATEKAKQEFEKAGKDFLVETIKLGKLLRPNHLWGYYLFPDCYNHHYKKPGYNGSCFNVEIKRNDDLSWLWNESTALYPSIYLNTQQSPVAATLYVRNRVREAIRVSKIPDAKSPLPVFAYTRIVFTDQVLKFLSQDELVYTFGETVALGASGIVIWGTLSIMRSMKSCLLLDNYMETILNPYIINVTLAAKMCSQVLCQEQGVCIRKNWNSSDYLHLNPDNFAIQLEKGGKFTVRGKPTLEDLEQFSEKFYCSCYSTLSCKEKADVKDTDAVDVCIADGVCIDAFLKPPMETEEPQIFY
modifications: N-glycans removed by PNGaseF; soluble rHuPH20 36-482

B3: HZ24-mut(B/S): plasmid encoding PH20 truncated at amino acid 482, SEQ ID NO:122 (protein, listed as Homo sapiens)
chain: B2 chain
modifications: soluble rHuPH20 36-482
PH20 Activity (1:27) ([1]; expressed in Pro-5 cells): 0.6615 U/mL
PH20 Activity (1:81) ([1]; expressed in Pro-5 cells): 1.1745 U/mL
